# Data taken from a protein production outcome set (Wang et al. 2014).
# Experiment: label from the status in PepcDB records
row,Sequence,protein production
1,MRVISRRTSLILFSGLVFVLASMLLYLYLNSGSEQTQTYNESRDLIRQLKQQDAVWENEVLKARVAVSHNYDPLVIPLKEMKRLWARFDRREAEQGRDESDQWRDAHDGFLSAFGEKARLVEQFKSHNALLRNSLAFLPTAEDGIQAQINTMLAPNRQEVHVFVTDTYDLLLSALEFAQVTSVERAAEIEVGLGNLAVNTENLPKEFQTPLNLLSNHVALILREQPVVNRLLEQIEAIPVAERLDTITSLLDRDQQQVEKINRKNHLYTLWLSGLLMFSVICLAALLVRSFAEVRRVNNALQSANDVLEQRVEERTLALRNAQSELFNAARQAGMAEIATNVLHNVGNVLNSVNTSSDLIARTLRSSKTQGLGKAMQLFREHATDIGRFLDEDPRGRLLPGYLNQLTEAIADEQKEMAIELERMNKSIDHIKEVVATQQSYAGAKNVPEPLSVNDLVEDALRMNAGALTRHQVRVVRDFADLPLVMGDRHRLLLILINLISNAKYAMSGPGSDPRTMILRTRIVEGGLLEMSVLDEGEGIAPENLQKIFAHGFTTRKDGHGFGLHSCALAAIEMNGHLTAHSDGPGLGAVFTLRIPLIAVTEPA,failed
2,MRAVLTWRDKAEHCINDIAFKPDGTQLILAAGSRLLVYDTSDGTLLQPLKGHKDTVYCVAYAKDGLWSPEQKSVSKHKSSSKIICCSWTNDGQYLALGMFNGIISIRNKNGEEKVKIERPGGSLSPIWSICWNPSREERNDILAVADWGQKVSFYQLSGKQIGKDRALNFDPCCISYFTKGEYILLGGSDKQVSLFTKDGVRLGTVGEQNSWVWTCQAKPDSNYVVVGCQDGTISFYQLIFSTVHGLYKDRYAYRDSMTDVIVQHLITEQKVRIKCKELVKKIAIYRNRLAIQLPEKILIYELYSEDLSDMHYRVKEKIIKKFECNLLVVCANHIILCQEKRLQCLSFSGVKEREWQMESLIRYIKVIGGPPGREGLLVGLKNGQILKIFVDNLFAIVLLKQATAVRCLDMSASRKKLAVVDENDTCLVYDIDTKELLFQEPNANSVAWNTQCEDMLCFSGGGYLNIKASTFPVHRQKLQGFVVGYNGSKIFCLHVFSISAVEVPQSAPMYQYLDRKLFKEAYQIACLGVTDTDWRELAMEALEGLDFETAKKAFIRVQDLRYLELISSIEERKKRGETNNDLFLADVFSYQGKFHEAAKLYKRSGHENLALEMYTDLCMFEYAKDFLGSGDPKETKMLITKQADWARNIKEPKAAVEMYISAGEHVKAIEICGDHGWVDMLIDIARKLDKAEREPLLLCATYLKKLDSPGYAAETYLKMGDLKSLVQLHVETQRWDEAFALGEKHPEFKDDIYMPYAQWLAENDRFEEAQKAFHKAGRQREAVQVLEQLTNNAVAESRFNDAAYYYWMLSMQCLDIAQADPAQKDTMLGKFYHFQRLAELYHGYHAIHRHTEDPFSVHRPETLFNISRFLLHSLPKDTPSGISKVKILFTLAKQSKALGAYRLARHAYDKLRGLYIPARFQKSIELGTLTIRAKPFHDSEELVPLCYRCSTNNPLLNNLGNVCINCRQPFIFSASSYDVLHLVEFYLEEGITDEEAISLIDLEVLRPKRDDRQLEIANNSSQILRLVETKDSIGDEDPFTAKLSFEQGGSEFVPVVVSRLVLRSMSRRDVLIKRWPPPLRWQYFRSLLPDASITMCPSCFQMFHSEDYELLVLQHGCCPYCRRCKDDPGP,failed
3,MAQTCSILYIPYMLLLSSLFAAGIATITEGELLSSMIGVQGLIYCKRGSKLTPIQGAVARVTCERTDEYGYEAEDVTVLSQATDAKGYFLATLSSSEVKDYKKVIKIKECRAFLELSPSDTCSFPTEINRGISGAILQNYRLLENKLKMKLFTVGPFVFSSEETQDKSIPNGY,failed
4,AIAPSDLAKKKAAKKKEAAKARGRTRKPEDGVNGDAEKPEIQENGAAEVNGVDSLAKELDEFELKKTEARAVTGVLASHPNSTDVHISSLSLTFHGQELLSDTSLELNSGRRYGLIGLNGTGKSMLLSAISHREVPIPEHIDIYHLTREMAPSEKTALQCVMEVDEERIKLEKEAERLAHEDSECEKLMELYERLEELDADKASMRASRILHGLGFTTSMQQKKLKDFSGGWRMRVALARALFLKPFMLLLDEPTNHLDLDACVWLEEELSQFKRILVLISHSQDFLNGVCTNIIHLHQRKLKYYTGNYDQYVKTREELEENQMKRFNWEQDQIAHMKNYIARFGHGSAKLARQAQSKEKTLQKMVASGLTERVVNDKTLSFYFPPCGKIPPPVIMVQNVSFRYSENTPYIYKNLEFGIDLDTRVALVGPNGAGKSTLLKLLTGELLPSDGMIRKHSHVKIGRYHQHLTEQLELDLSPLEYMMKCYPEIKEKEEMKKIIGRYGLTGKQQVSPIRNLSDGQKCRVCFAWLAWQNPHMLFLDEPTNHLDIETIDALAEAINDFEGGMMLVSHDFRLIQQVAQEIWVCEKQTITKWSRDILAYKEHLKSKIDKQMHDL,failed
5,MAYSPSLNDIKSILNKYTSKDYELKCENRYDGKLELWLKGVFEEIVKTPGTRYVTHKQLDEKLKNFVTKTEFKEFQTVVMESFAVQNQNIDAQGEQIKELQVEQKAQGKTLQLILEALQGINKRLDNLESK,failed
6,MVFLKRFRAYGFKSYADEITINFTHSMTGIVGPNGSGKSNVVDALKWVLGERSMKHLRSKSGDDMIFFGSKDKPASKLAEVELTFDNSQKLLHDPRPEISVMRRIYRGSGQSEYYINGELVTLKEISGIFADIGLEKGSLGIISQGSVSFVEAKPEERRKIFEDASGIGRYTKRKEEVTNQLARTVQNLKQVSIVLNELKKDLKKLTIQADKAQRFVKLKEELKELELSVLVADYLKSQGELDRFNHQIGYIEQDFKLHEPQLQLLEDQLNIFNQRFRDADEQSIKLQQELQAVYQTINELEQRKAVIDVQLKNELSKKDEKHKIQALKKLIRVDQAQLESLQAQVLKTTSEITLLTNELSTVQTELDTTKLNLNQNSAALVYQQAQQEFLKAQNEEWVKTNPAHVLVKNVKALTGLLNTLNTFLKFEKQYEKALLKALGKSIGYLVVNNNLAALKAIDFLLTNQIGQVTFLPIDDIAFDTKIAPEHMEILQQLDGFLGVGSDHVSCDESLQPIVNALLGQVIIASDLQAALKLSSYTYKLYRVVTLNGETVYAGGIIQGGYVKDNLSLYNLQEKLASSEANITQLEHNEKQLRTNLTSLETKLNELNKKLKYEEILLEKFNERVNHTNKAILSYKIEYEQLTNESFDGTPHSFDETRLVESLNRAWAERDELNSQLKLNQELKETLAKSIKLAEAKTADLRALLDEQRSQLVLAREGKIRFENTIHNITDKINGGYKLTMEFAIANYNKPIKLSTMQAQNKIARMQSQLDEMGPINLESIAEIADKQKRFDDINGEYESLQTAIKDLQTAIGEIDELACKEFDELIQKVNAELPKTFNYLFGGGSCQIRYTDTDNVLLSGIEVFANPPGKNVANLMLLSGGEKTLVALSVLFSILRVSAFPLVILDEAESALDPANVERFANIIGNSSNNTQFLIITHRQGTMMKCDMLLGAAMQTKGVTKTFAVSLEKAEQYISKDKQN,failed
7,AERTIQLPKPDMNRAGLLMKALSERHSTREYASKALSNTDLSDLLWAANGINRSSEGKRTAPSAMNRQDIDIYVVLPQGTYLYDAKGHKLNLISEGDHRSAVAGGQAFVNNAPVSLVLVSDLSKLGDAKSNHVQLMGAMDAGIVSQNISLFCSAARLATVPRASMDLVRLKAALKLKDTQMPMMNHPVGYFK,not failed
8,MKLIAIDLDGTLLNSKHQVSLENENALRQAQRDGIEVVVSTGRAHFDVMSIFEPLGIKTWVISANGAVIHDPEGRLYHHETIDKKRAYDILSWLESENYYYEVFTGSAIYTPQNGRELLDVELDRFRSANPEADLSVLKQAAEVQYSQSGFAYINSFQELFEADEPIDFYNILGFSFFKEKLEAGWKRYEHAEDLTLVSSAEHNFELSSRKASKGQALKRLAKQLNIPLEETAAVGDSLNDKSMLEAAGKGVAMGNAREDIKSIADAVTLTNDEHGVAHMMKHLL,not failed
9,MDDYSLDEFRRRWQEELAQAQAPKKRRRPEAAERRARRPEVGSGRSEQASGDPALAQGLLEGAGRPPAARATRAEGQDVASRSRSPLAREGAGGGEQLVDQLIRDLNEMNDVPFFDIQLPYELAINIFQYLDRKELGRCAQVSKTWKVIAEDEVLWYRLCQQEGHLPDSSISDYSCWKLIFQECRAKEHMLQTNWKNRKGAVSELEHVPDTVLCDVHSHDGVVIAGYTSGDVRVWDTRTWDYVAPFLESEDEEDEPGMQPNVSFVRINSSLAVAAYEDGFLNIWDLRTGKYPVHRFEHDARIQALALSQDDATVATASAFDVVMLSPNEEGYWQIAAEFEVPKLVQYLEIVPETRRYPVAVAAAGDLMYLLKAEDSARTILYAHGPPVTCLDVSANQVAFGVQGLGWVYEGSKILVYSLEAGRRLLKLGNVLRDFTCVNLSDSPPNLMVSGNMDGRVRIHDLRSGNIALSLSAHQLRVSAVQMDDWKIVSGGEEGLVSVWDYRMNQKLWEVYSGHPVQHISFSSHSLITANVPYQTVMRNADLDSFTTHRRHRGLIRAYEFAVDQLAFQSPLPVCRSSCDAMATHYYDLALAFPYNHV,failed
10,ADSPVLMVYGLDQSKMNCDRVFNVFCLYGNVEKVKFMKSKPGAAMVEMADGYAVDRAITHLNNNFMFGQKMNVCVSKQPAIMPGQSYGLEDGSCSYKDFSESRNNRFSTPEQAAKNRIQHPSNVLHFFNAPLEVTEENFFEICDELGVKRPTSVKVFSGKSERSSSGLLEWDSKSDALETLGFLNHYQMKNPNGPYPYTLKLCFSTAQHAS,not failed
11,MNNDNNTILGFDVNLICDFFLNTERQGPGSPEVTLKALSFIDNLTNKSLIADLGCGTGGQTMILAQHVPGKITGIDFFPGFIERFNKNAEKLNLQNRVKGIVGSMDDLSFEKDSLDLIWSEGAIYNIGFERGLKEWRNYLKPGGYLAVSESVWFTDQRPAEIHDFWMSAYTEIDTVPNKVAQIQKAGYIPVATFILPENCWIEHYFAPQAKAEEIFRRKHAGSRIVEELITSNHHEAELYSKYKAYYGYAFFICKKGFSLRR,failed
12,PLADTRFLQRRRALSAQLAAKRIDAMLVTHLTHIRYLSGFTGSNAALIINKDLSARISTDGRYITQIAEQVPDIESLMARNCAPALLSDINGPKRVGFEADYLSVSQCEELRKSAGSDVELIPVTGAIEKLR,not failed
13,MEILSLGEKIKARRKELNMTLKDLAGDRITPGQISLVESGKSNPSMDLLEYLAGALNTSVEYLMESEETQAEKICVYYENTAEAYMLNDELMEAEQYLEKAMYYAENYKISYRKARTLYLYGCINMNKNELGVAQQFFLSSNVLFIKLNHYEDIINTFINLGKITLNLKAYNSSCSYFEQAERVSRDNDIGNDFLIGEIYYYMSLVYFKMNNSNKTIKYCLMAKEKFAELENKKEYARTLLILSKEYSKSGDVDNAIKYSKKALKAFKENDNMFAVADIENELGKLFYEFENIEESFIHLNKAKEIRKKTKGHEFIETLCNICENYIKLKDTENSQKVLNEIKENIDGNNVFDILKYYMLKYRISILNRSLKEAENILLRALQYAENMELEKEAAEFSVIIGKYYIDNGDDVEAAKYLNSGIEKFKKIGVLKDL,failed
14,MFNKRLKQQLATLSDELNALQQFKACLESQVLNLELDGEGAIRRANQNFIQALELDGQPLAGVALESIISRHPQAVPLYREFKAALGRNESYTGQLRLQRGGGREAWLQVCVQPIRDGAGRLDHYNLICTDQS,failed
15,QIPAERDREPSKLKRSYSSPDITQAIQEEEKRKPTVTPTVNRENKPTCYPKAEISRLSASQIRNLNPVFGGSGPALTGLRNLGNTCYMNSILQCLCNAPHLADYFNRNCYQDDINRSNLLGHKGEVAEEFGIIMKALWTGQYRYISPKDFKITIGKINDQFAGYSQQDSQELLLFLMDGLHEDLNKADN,failed
16,MGLFDFLKKGLQKTKETFFGRVVKLLKGKKLDDETREELEELLIQADVGVETTEYILERLEEKDGDALESLKEIILEILNFDTKLNVPPEPPFVIMVVGVNGTGKTTSCGKLAKMFVDEGKSVVLAAADTFRAAAIEQLKIWGERVGATVISHSEGADPAAVAFDAVAHALARNKDVVIIDTAGRLHTKKNLMEELRKVHRVVKKKIPDAPHETLLVIDATTGQNGLVQAKIFKEAVNVTGIILTKLDGTAKGGITLAIARELGIPIKFIGVGEKAEDLRPFDPEAFVEVLLSE,not failed
